Biological target: G-actin (UniProt P68135 1-377)
Experiment: fluorescence polarisation

- Kd: ~21 nM
B1: TMR-SpWsp1(VCA) (domain or fragment)
chain: QDGRANLMASIRASGGMDLLKSRKVSASPSVASTKTSNPPVEAPPSNNLMDALASALNQRKTKVAQSDEEDEDDDEWD
modifications: TMR-labeled (position not given)

— PMC4293355 (Developmental cell, 2014)
